Results: patent US20130029358A1, “IMMUNODOMINANT MHC DR52B RESTRICTED NY-ESO-1 EPITOPES, MHC CLASS II MONOMERS AND MULTIMERS, AND USES THEREOF” (LUDWIG INSTITUTE FOR CANCER RESEARCH LTD., priority 2010, published 2013)

Tests used:
DR52b = target: T1, DR52b (Homo sapiens, UniProt P01903+P79483); assay: DR52b competition binding assay with biotin-labeled HA306-318 peptide; conditions: relative to untagged peptide
T1 construct: made in house; host or cells: D.Mel-2 (Drosophila) cells, pMT/BiP/V5-His A vector, secreted, purified on L243 anti-HLA-DR column
Protocol: (§1) FIG. 16. DR52b binding capacity of His-tagged and untagged ESO peptides and recognition by specific clones. (A) The capacity of His-tagged and untagged ESO peptides to bind to DR52b was assessed in a competition assay with a biotin-labeled HA-derived peptide. ESO and control peptides were incubated overnight at 37° C., at the indicated concentrations, with recombinant empty DR52b protein (5 μg) and biotin-labeled HA306-318 peptide (0.2 μM). The quantity of DR52b molecules containing the biotin-labeled peptide in each test-point was assessed by ELISA using anti-HLA-DR (clone L243) coated plates and alkaline phosphatase-labeled streptavidin. (B) ESO specific clones were incubated with DR52b^+ EBV-B cells and ESO peptides, at the indicated concentrations, and IFN-γ was measured by ELISA in 24 hrs culture supernatants. Results are shown for one clone representative of 3 clones tested.
Because our new approach involves the addition of a His-tag to the ESO peptides, it was important to address the effect of this modification on peptide binding to class II molecules and recognition by specific CD4^+ T cells. With this aim we assessed the relative efficiency of untagged and His-tagged ESO peptides to bind to DR52b using a previously described competition assay (13).

ESO specific clones = assay: Recognition of His-tagged and untagged ESO peptides by specific clones with DR52b+ EBV-B cells (IFN-γ ELISA); assay type: cell-based, human; conditions: 24 hrs
Protocol: as §1, with “tested. DR52b^+ ESO-specific CD4^+ T cell clones or polyclonal cultures were stimulated in the absence or presence of ESO peptides (2 μM) or PMA (100 ng/ml) and ionomycin (1 μg/ml), as indicated, and cytokine production was assessed in a standard 4 hrs intracellular cytokine staining assay using mAb specific for IFN-γ, TNF-α, IL-2, IL-4, IL-10 (BD Biosciences) and IL-17 (eBiosciences), as previously described (9, 34). […]” for “tested.”

| Substance | effect of His-tag on peptide binding to DR52b (DR52b) | recognition by specific CD4+ T cells relative to untagged peptide (ESO specific clones) |
| --- | --- | --- |
| His-tagged ESO123-137: ESO123-137 extended at the N-terminus by 6 His residues and a linker (Ser-Gly-Ser-Gly) | did not significantly modify | moderately improved efficiency |
| His-tagged ESO119-143: ESO119-143 extended at the N-terminus by 6 His residues and a linker (Ser-Gly-Ser-Gly) | did not significantly modify | – |
